# From the Human Domainome abundance scans (Beltran et al. 2025)
# ± gives the uncertainty stated by the source.
# B1: Far upstream element-binding protein 1, residues 98 to 169; numbered along this chain, Q96AE4 (parent)
# chain: RSVMTEEYKVPDGMVGFIIGRGGEQISRIQQESGCKIQIAPDSGGLPERSCMLTGTPESVQSAKRLLDQIVE
# Variants of: B1
# Experiment: abundance fitness (aPCA) (normalised: wild type 0, dead -1); higher = more abundant; growth selection in yeast, the domain comes from the species named
# Settings: Homo sapiens
row,Variant,abundance fitness
1,RSVMTEEYKVPDGMVGFIIGRGGEQISRIQQESGCKIQIAPDSGGLPERSCMLNGTPESVQSAKRLLDQIVE,-0.069 ± 0.05
2,RSVMTEEYKVPDGMVGFIIGRGGEQISRIQQESGCKIQIAPDSGGLPERSCMLAGTPESVQSAKRLLDQIVE,-0.081 ± 0.03
3,RSVMTEEYKVPDGMVGFIIGRGGEQISRIQQESGCKIQIAPDSGGLPERSCMLWGTPESVQSAKRLLDQIVE,-0.185 ± 0.031
4,RSVMTEEYKVPDGMVGFIIGRGGEQISRIQQESGCKIQIAPDSGGLPERSCMLVGTPESVQSAKRLLDQIVE,-0.05 ± 0.028
5,RSVMTEEYKVPDGMVGFIIGRGGEQISRIQQESGCKIQIAPDSGGLPERSCMLFGTPESVQSAKRLLDQIVE,-0.105 ± 0.048
6,RSVMTEEYKVPDGMVGFIIGRGGEQISRIQQESGCKIQIAPDSGGLPERSCMLMGTPESVQSAKRLLDQIVE,0 ± 0.038
7,RSVMTEEYKVPDGMVGFIIGRGGEQISRIQQESGCKIQIAPDSGGLPERSCMLSGTPESVQSAKRLLDQIVE,-0.027 ± 0.029
8,RSVMTEEYKVPDGMVGFIIGRGGEQISRIQQESGCKIQIAPDSGGLPERSCMLEGTPESVQSAKRLLDQIVE,-0.028 ± 0.033
9,RSVMTEEYKVPDGMVGFIIGRGGEQISRIQQESGCKIQIAPDSGGLPERSCMLIGTPESVQSAKRLLDQIVE,-0.054 ± 0.043
10,RSVMTEEYKVPDGMVGFIIGRGGEQISRIQQESGCKIQIAPDSGGLPERSCMLDGTPESVQSAKRLLDQIVE,-0.191 ± 0.045
11,RSVMTEEYKVPDGMVGFIIGRGGEQISRIQQESGCKIQIAPDSGGLPERSCMLGGTPESVQSAKRLLDQIVE,-0.282 ± 0.028
12,RSVMTEEYKVPDGMVGFIIGRGGEQISRIQQESGCKIQIAPDSGGLPERSCMLKGTPESVQSAKRLLDQIVE,0.01 ± 0.036
13,RSVMTEEYKVPDGMVGFIIGRGGEQISRIQQESGCKIQIAPDSGGLPERSCMLTTTPESVQSAKRLLDQIVE,-1.32 ± 0.12
14,RSVMTEEYKVPDGMVGFIIGRGGEQISRIQQESGCKIQIAPDSGGLPERSCMLTSTPESVQSAKRLLDQIVE,-0.44 ± 0.037
15,RSVMTEEYKVPDGMVGFIIGRGGEQISRIQQESGCKIQIAPDSGGLPERSCMLTFTPESVQSAKRLLDQIVE,-1.41 ± 0.21
16,RSVMTEEYKVPDGMVGFIIGRGGEQISRIQQESGCKIQIAPDSGGLPERSCMLTDTPESVQSAKRLLDQIVE,-0.936 ± 0.074
17,RSVMTEEYKVPDGMVGFIIGRGGEQISRIQQESGCKIQIAPDSGGLPERSCMLTETPESVQSAKRLLDQIVE,-1.12 ± 0.069
18,RSVMTEEYKVPDGMVGFIIGRGGEQISRIQQESGCKIQIAPDSGGLPERSCMLTLTPESVQSAKRLLDQIVE,-1.51 ± 0.12
19,RSVMTEEYKVPDGMVGFIIGRGGEQISRIQQESGCKIQIAPDSGGLPERSCMLTPTPESVQSAKRLLDQIVE,-1.13 ± 0.082

row,Variant,abundance fitness
1,RSVMTEEYKVPDGMVGFIIGRGGEQISRIQQESGCKIQIAPDSGGLPERSCMLTVTPESVQSAKRLLDQIVE,-1.31 ± 0.077
2,RSVMTEEYKVPDGMVGFIIGRGGEQISRIQQESGCKIQIAPDSGGLPERSCMLTATPESVQSAKRLLDQIVE,-0.534 ± 0.034
3,RSVMTEEYKVPDGMVGFIIGRGGEQISRIQQESGCKIQIAPDSGGLPERSCMLTITPESVQSAKRLLDQIVE,-1.12 ± 0.14
4,RSVMTEEYKVPDGMVGFIIGRGGEQISRIQQESGCKIQIAPDSGGLPERSCMLTHTPESVQSAKRLLDQIVE,-0.721 ± 0.13
5,RSVMTEEYKVPDGMVGFIIGRGGEQISRIQQESGCKIQIAPDSGGLPERSCMLTKTPESVQSAKRLLDQIVE,-1.05 ± 0.087
6,RSVMTEEYKVPDGMVGFIIGRGGEQISRIQQESGCKIQIAPDSGGLPERSCMLTCTPESVQSAKRLLDQIVE,-1.24 ± 0.15
7,RSVMTEEYKVPDGMVGFIIGRGGEQISRIQQESGCKIQIAPDSGGLPERSCMLTNTPESVQSAKRLLDQIVE,-1.1 ± 0.16
8,RSVMTEEYKVPDGMVGFIIGRGGEQISRIQQESGCKIQIAPDSGGLPERSCMLTGTGESVQSAKRLLDQIVE,-0.025 ± 0.026
9,RSVMTEEYKVPDGMVGFIIGRGGEQISRIQQESGCKIQIAPDSGGLPERSCMLTGTNESVQSAKRLLDQIVE,0.001 ± 0.063
10,RSVMTEEYKVPDGMVGFIIGRGGEQISRIQQESGCKIQIAPDSGGLPERSCMLTGTLESVQSAKRLLDQIVE,-0.048 ± 0.029
11,RSVMTEEYKVPDGMVGFIIGRGGEQISRIQQESGCKIQIAPDSGGLPERSCMLTGTDESVQSAKRLLDQIVE,-0.097 ± 0.044
12,RSVMTEEYKVPDGMVGFIIGRGGEQISRIQQESGCKIQIAPDSGGLPERSCMLTGTHESVQSAKRLLDQIVE,-0.12 ± 0.058
13,RSVMTEEYKVPDGMVGFIIGRGGEQISRIQQESGCKIQIAPDSGGLPERSCMLTGTIESVQSAKRLLDQIVE,-0.088 ± 0.05
14,RSVMTEEYKVPDGMVGFIIGRGGEQISRIQQESGCKIQIAPDSGGLPERSCMLTGTQESVQSAKRLLDQIVE,0.033 ± 0.034
15,RSVMTEEYKVPDGMVGFIIGRGGEQISRIQQESGCKIQIAPDSGGLPERSCMLTGTCESVQSAKRLLDQIVE,-0.111 ± 0.049
16,RSVMTEEYKVPDGMVGFIIGRGGEQISRIQQESGCKIQIAPDSGGLPERSCMLTGTKESVQSAKRLLDQIVE,-0.044 ± 0.04
17,RSVMTEEYKVPDGMVGFIIGRGGEQISRIQQESGCKIQIAPDSGGLPERSCMLTGTEESVQSAKRLLDQIVE,-0.008 ± 0.031
18,RSVMTEEYKVPDGMVGFIIGRGGEQISRIQQESGCKIQIAPDSGGLPERSCMLTGTFESVQSAKRLLDQIVE,0.057 ± 0.051
19,RSVMTEEYKVPDGMVGFIIGRGGEQISRIQQESGCKIQIAPDSGGLPERSCMLTGTAESVQSAKRLLDQIVE,-0.017 ± 0.028
